How the values were obtained:
[1] = target: CTLA-4 (BMS, Orencia) (human) (UniProt P16410); assay: cell-based or functional assay
[2] = target: CD137 chimera 1550 (1407): human CD137 with mouse domains 1, 2A and 2B (aa 24-86), on FreeStyle 293-F cells (human; mouse) (UniProt P20334); assay: flow cytometry, 293-F transfectants
Chain of UniProt P20334 (P20334 other isoform, or with tags, fused parts or gaps mutant limits assumed): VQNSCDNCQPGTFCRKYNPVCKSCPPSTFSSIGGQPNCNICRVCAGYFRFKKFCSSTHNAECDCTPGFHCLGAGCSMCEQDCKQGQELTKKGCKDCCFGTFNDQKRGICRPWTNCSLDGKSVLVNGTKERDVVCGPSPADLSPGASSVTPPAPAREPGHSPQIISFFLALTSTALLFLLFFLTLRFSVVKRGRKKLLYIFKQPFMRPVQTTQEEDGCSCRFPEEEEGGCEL

Chain of CTLA-4 (BMS, Orencia) (human) (P16410 38-152 limits assumed): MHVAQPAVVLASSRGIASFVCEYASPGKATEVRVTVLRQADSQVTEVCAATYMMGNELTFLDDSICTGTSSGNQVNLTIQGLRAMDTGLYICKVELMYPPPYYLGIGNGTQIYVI

Row | Binder | Mean IL-2 level (pg/ml) induced at 1.5 nM (control) [1] | relative binding (MFI sample/isotype control, normalised to full-length human CD137) [2]
1 | 1756/1757 (isotype control antibody fused to the 1040 CTLA4 binding region) (protein, part only; not given: Isotype control antibody chains, part only) APLKIQAYFNETADLPCQFANSQNLSLSELVVFWQDQENLVLNEVYLGKERFDSVDSKYMGRTSFDSDSWTLRLHNLQIKDKGRYQCIIHHKKPTGMINIHQMNSELSVLA | 1050 pg/mL | –
2 | anti-CD137 antibody 1204/1205 (antibody, IgG1, V domains shown) VH: EVQLLESGGGLVQPGGSLRLSCAASGFTFSSYYMGWVRQAPGKGLEWVSGIGSYYGYTGYADSVKGRFTISRDNSKNTLYLQMNSLRAEDTAVYYCARAYYDYNYYYAYFDYWGQGTLVTVSS VL: DIQMTQSPSSLSASVGDRVTITCRASQSISSYLNWYQQKPGKAPKLLIYAASSLQSGVPSRFSGSGSGTDFTLTISSLQPEDFATYYCQQSVPHYPFTFGQGTKLEIK | – | 0.07

— patent US20210238298A1
